The nature of the series: soluble on expression in E. coli; label from the status in PepcDB or PDB records.
In the case of “MEDRNITEEDRVCPQLPEFDEQANVQTDLKKMKPGDAIGKNWKVVKAIQSDKGFNTIYVAEHVQKKKKMAAVKVERKTEAIKMLQFELFVLLTVEKKNQCKQFCKLFEKGNEKEYNWIAITLCGKSLRALRKNQPTGKLTVACGLSVAQQCLKGLEELHRMGFIHRNVAPSVFAIGRYTGDNQSDLRNIYILDFGFAHQYMIKDGTLKPPSAHPWKYVGSLRHMPRAAYSKVEFSRMEDLEMWFYMSVELVKGCLPWAHLKKPKEVHDYQKLCRNGLQMREMLGGLPPEFVDIMQIVDKLSFTDTPNYTEIYGLLTNAILFSGKNEFPYDWEEAEINEFKNPQKPSVEQAT”, the “soluble on expression in E. coli” value is listed as “not soluble”. As for “MEDTIPAMPQWDKIIYNVLHGSTMKGITSLKKTSVWNEATPVCRESNREAIRRRFTRGLLGRLLQRTPLESCTPVFLPAAQSWPTLEMVPAGALLPGLSEGGEGAKNGSVTTGFFEFTESLPAVGLQRVLPVLPKSAWA”, the entry is “not soluble”. Turning to “MEDVWLQAQSNLAKVLTHQTFTTWIEPIRFAGAHKNTLLLEAPNQFIRDRVRESYLPMILESVRSLTDSHFQVELQVAARQQEKTAKSPRKSHTEDELGPVESEKCAPAEFSTNLNAKYTFDTFVCGGSNQFAHAAALSVANNPAGKYNPLFIYGGVGLGKTHLLTAIGNQVLTKNRKARVCFYTSEKFMNELINCLRYQKMEQFRNKFRKMDLLLIDDIQFIAGKERTQEEFFHTFNALYESHKQIVVTSDKFPKDIPGLEERLRSRFEWGLIADIQPPDTETKVAILSKKADSDGIRLPDDVALFLASSASTNVRELEGMLIRLGAVASLTGKNITLDMAREVLKDIIVDKTKEVTVEMIQKYVADHFNIKVAELKSDKRLKALVVPRQIAIYLCRDLTKASYPDIGEKFGGKDHSTIIHSVKKVDKLLSQDFELKSTIETLRKGLLNLEHHHHHH”, the “soluble on expression in E. coli” value is “soluble”. Consider “MEEELRVRLNDHQVSKVFPVKPKSTANVVAVMEELVARRKLMKCVSNMEEGELGMLLGFLQRYCTVQRYSGLLMGLTKKVLETRAEDIKGKNEFKGLLRNLKREVNQEIRIQQSLLEIQGVIAPLMRIAGRS”, for which the “soluble on expression in E. coli” value is “not soluble”. With “MEEIIKPVSKELLKAELTEDRRLRMTNKSNNQIYIITHQNAPNVMREIGRLREIAFRAAGGGTGLSMDIDEYDTMEHPYKQLIVWNPEAEEILGGYRYLLGTDVRFDEAGAPILATSHMFHFSDAFIKEYLPQTIELGRSFVTLEYQSTRAGSKGLFALDNLWDGLGALTVVMPNVKYFFGKVTMYPSYHRRGRDMILYFLKKHFNDREELVTPMEPLILETSDEELRTLFCKDTFKEDYKILNTEIRKLGYNIPPLVNAYMSLSPTMRMFGTAINYEFGDVEETGILIAVDEILEDKRIRHIQTFIESHPDALKMPCESEGVFTPKVVTPQEGCCH” the entry was “not soluble”. With “MEEKFDVVIIGAGPAGLFAAYELVEKSNLKVLIIEEGGDVDQRVCPMYELGYCIGCKPCHIMSGVGGAGGLSDGTVNLRPDIGGDLTELTNDENYSWQLVWEVDQILLRHEAPRNLYKGDPEQIKYWERKAAQAGVKFIPIIQRHIGSDNTPKVIKSIKNYLEKKGVKFLLWTKALEFNKGWVKVRRGKDTFTINARYIIVAPGRGGADWFHEVAKKIGLKARHGPIDVGVRVEVPAIVMEPITSINHDPKFHIYTDTYDDFVRTFCTNPYGFVVEERYDNYVGVNGHSMREKKSNNTNFALLTRIELTEPVEDTTAYGKSIAQLATTIGGGKPIIQRLGDLRRGRRSTWSRIRKSDVEPTLKHVTPGDIAMALPHRVVTNIIEGLERLDKVIPGVASDHTLLYAPEIKYYAMRVEVNELLETNIENVFAAGDGAGLSRDIVNAAATGIMAARGILVKEGLYNLKDFKKPGNWKEKIENLEPEYLEHHHHHH” the entry was “not soluble”; with “MEELIKKAKEYDIDINDLIIDAISRKDPKEAINLRIELAKKYITETEDYLKKGDAVQASEKAYKTAEEIVKALAEKFNIPEYQQALKEGRWYTYWLASAVNRLAKDLGDWVLNGWNSAYILHVWGFHEAKLSTADISEHLRKVKEMLDNVINIIGKLEHHHHHH”, “soluble”; with “MEESSAAKIQLLKEFKFEKILKDDTKSKIITLYGKIRNEVALLLLEKTAFDLNTIKLDQLATFLQDTKLVENNDVFHWFLSTNFQDCSTLPSVKSTLIWPASETHVYKYSSQKKPMVCETPLMYLKVTKPFIETQRGPQIQWVENILTHKAEAERIVVEDPDPLNGFIVIPDLKWDRQTMSALNLMAIVHATDIASIRDLKYKHIPLLENIRNKVLTEVPKQFSVDKNQLKMFVHYLPSYYHLHVHILHVDHETGDGSAVGRAILLDDVIDRLRNSPDGLENVNITFNIGEQHFLFQPLTNMNA”, “soluble”.

Regarding “MEEVINYRSDLFRLSDNLETLHIEEKFGIKCDLTCKIEENMTTFEFQFDLRDFKNNGFKQLTAEITIRPDPENPIFELIHRKLDILDIDEHRVNFSVENKNTQSLAETRAILELILTPIREKFSYREMFMPSQKTDAILMIGGEKLHVNKAFLSFHSDFFHELFSASSTESEIPEIPIRDVSAEDMGLLLSTIYPDLVFPTDKTAAKLLTLANRFQMRAVTAQVEHHLLWHSDIEIEKLILMANTFGMKDLLKECTCDGGNKTPGEVPISVQ”, the “soluble on expression in E. coli” value is given as “not soluble”. With “MEFFGESWKKHLSGEFGKPYFIKLMGFVAEERKHYTVYPPPHQVFTWTQMCDIKDVKVVILGQNPYHGPNQAHGLCFSVQRPVPPPPSLENIYKELSTDIEDFVHPGHGDLSGWAKQGVLLLNAVLTVRAHQANSHKERGWEQFTDAVVSWLNQNSNGLVFLLWGSYAQKKGSAIDRKRHHVLQTAHPSPRSVYRGFFGCRHFSKTNELLQKSGKKPIDWKEL” the entry was “soluble”; with “MEFGVPRERSGGEIPERRVPLTPQGVRELVASGHRVYVERGAGEGAGFPDEAYEEAGARLVGREEAFGRPQVVLKVARPTLEEVGLMRKNAVLMAFLHLAVAESPLVEAMAQKGLTAIGYELVGEEGRRPVLKAMSEIAGRMAPQLAGRLLEAPQGPGILLSGLVGIPPADVVVLGAGVLGRAAARAFLGAGASVHLLDRALPPLEEAAREAPGAITALVTQDRLERYVAFADVLVGAVAVPGERTPLLLTRGLLARMRPGSVLLDFSIDQGGVSETSRPGVYQEMGVTHFCLPNVPALVPRTASHALTLTLLPYLLRIQEDPLALPGLRQGAYLLFGEKGGHLE”, “soluble”; with “MEFYMKAFNKLFSLVVASVLVFSLAGCGDKEESKKFSANLNGTEIAITYVYKGDKVLKQSSETKIQFASIGATTKEDAAKTLEPLSAKYKNIAGVEEKLTYTDTYAQENVTIDMEKVDFKALQGISGINVSAEDAKKGITMAQMELVMKAAGFKEVK”, “not soluble”. With “MEGCVSNIMICNLAYSGKLDELKERILADKSLATRTDQDSRTALHWACSAGHTEIVEFLLQLGVPVNDKDDAGWSPLHIAASAGRDEIVKALLVKGAHVNAVNQNGCTPLHYAASKNRHEIAVMLLEGGANPDAKDHYDATAMHRAAAKGNLKMVHILLFYKASTNIQDTEGNTPLHLACDEERVEEAKFLVTQGASIYIENKEEKTPLQVAKGGLGLILKRLAEGEEASM” the entry was “soluble”; with “MEGLARVFLIGGASKAVRYDEQTTIERVIHVVARGIGISQVAVAHFALRLVTGPSPQTAGSGDSLWLHPMLRITQLPHIYARHLPIGVCDEIKLEMRMRFMPQSVYELQATDSSAFVYLHEQVVDEFFSHVAWRSSVEVALEVAALKVCRDFAEHQHNKGADHHLEDLDIEACIQSLIPNVLHNPGFKHSHLKKTFTAYIKKFSATSPNESIIRSLALLLEVVKFDVELFKASLGAGWTKPVELVVGPHTGLSYRLNERCDSSRLLELRTIAEITIRKMENGSEKTLMQLNLSGAAKPVLITLSTEELSQSLAHLLDGYQMLYNQRDSVFKLKGIERCETLTMHEATIRPKTPNNIDSNIRLRRELITLKELIGGGQFGNVYKAVYHDLEKDERIAVAVKVCKTDAEPADTQLILQESSLMRNFRHSNIIQLIGVCVDQPMWLVLELAPKGELREYLQQEKDWLPLRILTLFCSQICDSLVYLHSTRFVHRDIAARNILVCSPQCVKLADFGLSRALDYDAVYTASRGKLPIKWLAPESVNYRQFSMASDVWMFGVCMWEIFSLGVKPWAGVTNSDVIMHIEQGSRPPCPEKCPTALYNFIRSKMWAIEPHKRPTVDQIYAIIEDVRQQIIQNIPPEQIIVGKPMTAAGVIVAEMSSLPGLTLYRTMEDQKRQAEEDAKWLEQEDDEDEDDQDIDQIPSTSHSSVENIRTSNGYLHHTPTSTRSLRFEDKTSRGLRRSVDGVCDAVTKLQNSFNNLTHNDDFLHSVKEVTSQLREMLIVASGMRDRVTTTTQRTDVDMTKTLIANDMKQMSRVMGKLQVNGHQATYNTLRRDVVRICGELAVNCTTLQLQLTQPPLENEFSSLLSNC”, “not soluble”; with “MEGNFSNRVQDVIRLSREEALRLGHDYIGTEHLLLGLIREGEGIGAKILKNLKVDLFQLKQKIEENTHPKVPATQMGNVPLTKQAEKVLKITYLEAKICKSTIIGTEHLLLSILKGDDNIAAQILEQFGVTYDQVRDELMTITT”, “not soluble”. With “MEHDERTHVPVELRAAGVVLLNERGDILLVQEKGIPGHPEKAGLWHIPSGAVEDGENPQDAAVREACEETGLRVRPVKFLGAYLGRFPDGVLILRHVWLAEPEPGQTLAPAFTDEIAEASFVSREDFAQLYAAGQIRMYQTKLFYADALREKGFPALPV” the entry was “soluble”. Regarding “MEHITLFTDILPEEQERMRICFHAREMTFRNGETIMEYSSSMKKIGLILYGRAILYCCDTEGNQYLIDEFNKDAVFGEPFLLPADSQHYYVCAAEETKIMFIDYEHVIKRCDQACYHHSQMVSNLLQLTAIQSRQQNERIYMLSRSSTRKKLMAYLNALSTEKHSKDLKLPMSYTALAQYLSVDRSAMTRELKNLEEEGIIKKSGKQIHII”, the “soluble on expression in E. coli” value is listed as “not soluble”. As for “MEHLLAIALGPVQEFIATARRTRDLYAGSRLLSEAAARAAKALAREVGAKNLIFPAPEDEAGLERLAGAGIPNVLLVRVPEGKDPRGLGEQALGAARDYLRERAEEVLGPRRDLLFWREALAQVEDLLEGYYAYLPLEGDYPRARERLMALLAARKNTRDFAPVSWGSPAYKSSLDGARESVLRLPEKEADHLRVRLGLRPGEYLAGPDLLKRWWKAGHGFLSTTHMAALPFWEGVRRAGLEAVLKEALEELGGLVGEEARAEVRHPVLRDTPFGEWDVRLLYESRLEEFPSLAEDPGLLEKARDRLRALWRRLFPKVRVPPGAYYALLHADGDRMGETLDGLPSPEAHRRFSNALALGFAAQVKDIVEAHGGGLVYSGGDDVLALLPLHTALMAARALADRFREAMAPFGREGRAPSLSVGLAVVHHLEPLQDALDLARRAEKWAKEGEPKRNALCVAYSPRSGAERLVRGRWDENPPLTRRLLRYADLLRAGEVPSRAAYELLALVREAGEALSGEALVAEALRILGRKEMKRAYREELEAWLRTGEDVRRLAEELILARPFAEALDQAGVPVESREVWDAH”, the entry is “soluble”.

These data come from the DeepSol protein solubility set.
